Residue numbers refer to the chain shown, from its start.
T1: Human IL-18BP (amino acids 31-194), biotinylated (human, UniProt O95998 31-194, biotin on the AviTag (BirA ligase) where used biotinylated)
T1 construct: Soluble decoy receptor; also called hIL-18BP; recombinant IL-18BP
T1 sequence: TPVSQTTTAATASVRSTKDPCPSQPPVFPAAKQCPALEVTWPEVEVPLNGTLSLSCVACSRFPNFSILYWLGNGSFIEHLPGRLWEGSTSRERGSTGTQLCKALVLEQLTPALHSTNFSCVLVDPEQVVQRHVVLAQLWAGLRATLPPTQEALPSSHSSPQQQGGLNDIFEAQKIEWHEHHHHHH

T2: Human IL-18Rα ectodomain (amino acids 19-329), biotinylated (human, UniProt Q13478 19-329, biotin on the AviTag (BirA ligase))
T2 construct: range 19-329; Secreted from insect cells (gp67 signal peptide removed); also called hIL-18Rα; hIL18Rα
T2 sequence: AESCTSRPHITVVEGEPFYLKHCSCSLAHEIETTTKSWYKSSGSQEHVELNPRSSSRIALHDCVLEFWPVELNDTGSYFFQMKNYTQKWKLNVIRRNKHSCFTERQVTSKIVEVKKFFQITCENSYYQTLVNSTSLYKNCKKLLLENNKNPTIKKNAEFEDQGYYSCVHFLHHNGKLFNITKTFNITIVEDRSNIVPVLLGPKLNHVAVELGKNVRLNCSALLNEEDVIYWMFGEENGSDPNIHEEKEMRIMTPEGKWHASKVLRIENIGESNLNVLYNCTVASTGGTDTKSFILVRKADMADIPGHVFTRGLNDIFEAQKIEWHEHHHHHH

T3: IL-18 receptor (IL-18Rα / IL-18Rβ heterodimer) on HEK-Blue IL-18 reporter cells (UniProt Q13478 19-541; O95256 20-599, limits assumed)
T3 sequence (looked up) 1: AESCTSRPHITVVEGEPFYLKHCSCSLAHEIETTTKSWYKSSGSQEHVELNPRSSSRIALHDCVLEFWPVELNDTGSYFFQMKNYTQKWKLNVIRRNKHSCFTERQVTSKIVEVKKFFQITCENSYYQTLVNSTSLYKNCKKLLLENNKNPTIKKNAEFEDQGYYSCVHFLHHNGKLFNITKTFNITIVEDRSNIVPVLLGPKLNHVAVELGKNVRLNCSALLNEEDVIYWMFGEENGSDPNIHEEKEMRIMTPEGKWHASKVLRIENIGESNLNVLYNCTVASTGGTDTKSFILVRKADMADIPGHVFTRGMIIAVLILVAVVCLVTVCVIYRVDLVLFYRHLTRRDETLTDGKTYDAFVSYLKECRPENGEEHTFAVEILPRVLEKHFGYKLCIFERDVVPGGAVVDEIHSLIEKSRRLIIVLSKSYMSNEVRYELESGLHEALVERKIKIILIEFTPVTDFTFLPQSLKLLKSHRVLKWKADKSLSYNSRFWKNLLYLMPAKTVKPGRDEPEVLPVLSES
T3 sequence (looked up) 2: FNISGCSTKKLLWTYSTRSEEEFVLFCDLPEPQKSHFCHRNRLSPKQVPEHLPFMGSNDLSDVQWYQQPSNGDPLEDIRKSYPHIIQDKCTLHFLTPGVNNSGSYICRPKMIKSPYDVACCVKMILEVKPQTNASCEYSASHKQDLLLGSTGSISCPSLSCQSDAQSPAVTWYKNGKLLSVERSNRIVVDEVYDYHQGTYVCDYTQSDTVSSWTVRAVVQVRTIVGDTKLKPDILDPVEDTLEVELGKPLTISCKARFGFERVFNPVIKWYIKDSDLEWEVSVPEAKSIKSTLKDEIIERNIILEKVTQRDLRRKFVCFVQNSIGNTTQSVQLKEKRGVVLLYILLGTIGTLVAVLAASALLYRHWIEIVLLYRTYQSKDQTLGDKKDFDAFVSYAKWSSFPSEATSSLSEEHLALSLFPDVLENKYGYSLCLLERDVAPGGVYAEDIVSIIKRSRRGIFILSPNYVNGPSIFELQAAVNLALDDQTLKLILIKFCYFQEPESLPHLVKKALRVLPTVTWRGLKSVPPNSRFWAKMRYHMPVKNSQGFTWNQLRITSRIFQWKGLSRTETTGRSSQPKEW

B1: SEQ ID NO: 89 (second generation human DR-IL-18 variant 6-12) (ligand)
chain: YFGKLESKLSVIRNLNDQVLFIDQGNRPLFEDMTDSDCRDNAPRTIFIISKYSDSLARGLAVTISVKCEKISTLSCENKIISFKEMNPPDNIKDTKSDIIFFQRDVPGHSRKMQFESSSYEGYFLACEKERDLFKLILKKEDELGDRSIMFTVQNED
notes: Engineered variant; recombinant soluble analyte in SPR and cell assays
B2: SEQ ID NO: 91 (second generation human DR-IL-18 variant 6-29) (ligand)
chain: B1 chain with L56R, D105N, S110G
notes: as for B1

Key:
[1] = target: T1, Human IL-18BP (amino acids 31-194), …; experiment: on-yeast binding isotherms; 20 µM used for NBD; printed without '>'; yeast-displayed variant; ratio computed with 20 µM put in for NBD
[2] = target: T2, Human IL-18Rα ectodomain (amino acids …); experiment: SPR (Biacore T100), hIL-18Rα as surface ligand; Exp 1
Procedure: (§1) Surface Plasmon Resonance (SPR) was used to perform biophysical affinity measurements of second generation DR-IL-18 variants (binding to IL-18R vs IL-18BP). Experiments were conducted using a Biacore T100 instrument and carried out at 25° C. Biotinylated IL-18Rα or IL-18BP were immobilized onto a Biacore biotin capture chip (Series S CAP sensor chip, GE Healthcare) to yield an Rmax of ˜50 RU (IL-18Rα) or ˜10 RU (IL-18BP). Measurements were made with serial dilutions of the IL-18 variants in HEPES buffered Saline-P+ buffer (10 mM HEPES pH 7.4, 150 mM NaCl, 0.005% surfactant P20). The surface was regenerated by three 60-sec injections of regeneration buffer (3/4 (v/v) 8M guanidine hydrochloride with ¼ (v/v) 1M sodium hydroxide). Experiments were performed in multiple channels simultaneously for increased observations. All data were analyzed with the Biacore T100 evaluation software version 2.0 with a 1:1 Langmuir binding model.

[3] = target: T1, Human IL-18BP (amino acids 31-194), …; experiment: SPR; KD(IL-18BP)/KD(IL-18Rα) normalized to WT IL-18; SPR; ratio from the bound KD BP >10,000 nM
Procedure: as §1

[4] = target: T3, IL-18 receptor (IL-18Rα / IL-18Rβ …); experiment: cell-based or functional assay
[5] = target: T2, Human IL-18Rα ectodomain (amino acids …); experiment: SPR (Biacore T100), hIL-18Rα as surface ligand; Exp 2
Procedure: as §1

[6] = target: T2, Human IL-18Rα ectodomain (amino acids …); experiment: SPR, apparent KD, second value of the cell; Exp 1
Procedure: as §1

[7] = target: T2, Human IL-18Rα ectodomain (amino acids …); experiment: on-yeast binding isotherm (flow cytometry), drawn summary table, IL18Rα (KD)
Procedure: Individual colonies of IL-18 yeast were grown overnight at 30° C. in SDCAA liquid media and induced in SGCAA liquid media for 1 day at 20° C. IL-18 display levels on yeast were verified by flow cytometry using an anti-cMyc tag antibody (anti-myc-PE; Cell Signaling Technologies). Receptor staining with biotinylated IL-18Rα (with or without IL-18R β) or biotinylated IL-18BP was performed in PBS supplemented with 0.5% BSA and 2 mM EDTA (PBE) on ice. All analysis was performed on a Sony SA3800 flow cytometer.

[8] = target: T2, Human IL-18Rα ectodomain (amino acids …); experiment: SPR
[9] = target: T2, Human IL-18Rα ectodomain (amino acids …); experiment: SPR (Biacore T100), hIL-18Rα as surface ligand, 1:1 Langmuir
Procedure: as §1

[10] = target: T2, Human IL-18Rα ectodomain (amino acids …); experiment: SPR, apparent KD, first value of the cell; Exp 2
Procedure: as §1

[11] = target: T1, Human IL-18BP (amino acids 31-194), …; experiment: on-yeast binding isotherms; KD ratio relative to WT IL-18; yeast-displayed variant; ratio normalized to WT, from the 20 µM placeholder
[12] = target: T1, Human IL-18BP (amino acids 31-194), …; experiment: SPR; KD(IL-18BP)/KD(IL-18Rα) normalized to WT IL-18; SPR; normalized ratio, a bound from KD BP >10,000 nM
Procedure: as §1

[13] = target: T2, Human IL-18Rα ectodomain (amino acids …); experiment: SPR, apparent KD, first value of the cell
Procedure: as §1

[14] = target: T2, Human IL-18Rα ectodomain (amino acids …); experiment: SPR, apparent KD, second value of the cell
Procedure: as §1

Row | Binder | KD ratio IL-18BP/IL-18Rα [1] | Kd [2] [nM] | IL-18 BP:Rα Dissociation Constant Ratio [3] | EC50-#1 (M), HEK-Blue reporter [4] [M] | EC50-#2 (M), HEK-Blue reporter [4] [M] | Kd [5] [nM] | Kd [6] [nM] | Kd [7] [nM] | Kd [8] [nM] | koff [9] [s⁻¹] | kon [9] [M⁻¹ s⁻¹] | Kd [10] [nM] | Dissociation Constant Ratio normalized to WT IL-18 [11] | IL-18 BP:Rα Dissociation Constant Ratio [12] | Kd [13] [nM] | Kd [14] [nM]
1 | B1 | > 1200 | 2.24 | > 9.32e+06 | 1.43e-10 | 5.44e-11 | 1.84 | 2.2 | 17 | 2.2 | 0.00091 | 495000 | 1.8 | > 17000 | – | – | –
2 | B2 | – | 2.65 | – | – | – | 2.07 | – | 37 | 2.7 | 0.00119 | 575000 | – | – | > 7.59e+06 | 2.1 | 2.7

Source: patent US20230277625A1 (SIMCHA IL 18, published 2023)
